From article PMC6778029 (Molecular cell, 2019)

B1: recombinant hnRNPG RGG1mut (natural protein, human, UniProt P38159 1-391, looked up)
chain: MVEADRPGKLFIGGLNTETNEKALEAVFGKYGRIVEVLLMKDRETNKSRGFAFVTFESPADAKDAARDMNGKSLDGKAIKVEQATKPSFESGRRGPPPPPRSRGPPRGLAGGAGGSGGTAGPPSAGGHMDDGGYSMNFNMSSSRGPLPVKRGPPPRSGGPPPKRSAPSGPVRSSSGMGGRAPVSRGRDSYGGPPRREPLPSRRDVYLSPRDDGYSTKDSYSSRDYPSSRDTRDYAPPPRDYTYRDYGHSSSRDDYPSRGYSDRDGYGRDRDYSDHPSGGSYRDSYESYGNSRSAPPTRGPPPSYGGSSRYDDYSSSRDGYGGSRDSYSSSRSDLYSSGRDRVGRQERGLPPSMERGYPPPRDSYSSSSRGAPRGGGRGGSRSDRGGGRSRY
B2: recombinant hnRNPG RRMmut (natural protein, human, UniProt P38159 1-391, looked up)
chain: MVEADRPGALAIGGLNTETNEKALEAVFGKYGRIVEVLLMKDRETNKSAGAAAVTFESPADAKDAARDMNGKSLDGKAIKVEQATKPSFESGRRGPPPPPRSRGPPRGLRGGRGGSGGTRGPPSRGGHMDDGGYSMNFNMSSSRGPLPVKRGPPPRSGGPPPKRSAPSGPVRSSSGMGGRAPVSRGRDSYGGPPRREPLPSRRDVYLSPRDDGYSTKDSYSSRDYPSSRDTRDYAPPPRDYTYRDYGHSSSRDDYPSRGYSDRDGYGRDRDYSDHPSGGSYRDSYESYGNSRSAPPTRGPPPSYGGSSRYDDYSSSRDGYGGSRDSYSSSRSDLYSSGRDRVGRQERGLPPSMERGYPPPRDSYSSSSRGAPRGGGRGGSRSDRGGGRSRY
B3: recombinant hnRNPG RGG2mut (natural protein, human, UniProt P38159 1-391, looked up)
chain: MVEADRPGKLFIGGLNTETNEKALEAVFGKYGRIVEVLLMKDRETNKSRGFAFVTFESPADAKDAARDMNGKSLDGKAIKVEQATKPSFESGRRGPPPPPRSRGPPRGLRGGRGGSGGTRGPPSRGGHMDDGGYSMNFNMSSSRGPLPVKRGPPPRSGGPPPKRSAPSGPVRSSSGMGGRAPVSRGRDSYGGPPRREPLPSRRDVYLSPRDDGYSTKDSYSSRDYPSSRDTRDYAPPPRDYTYRDYGHSSSRDDYPSRGYSDRDGYGRDRDYSDHPSGGSYRDSYESYGNSRSAPPTRGPPPSYGGSSRYDDYSSSRDGYGGSRDSYSSSRSDLYSSGRDRVGRQERGLPPSMERGYPPPRDSYSSSSAGAPAGGGAGGSRSDRGGGRSRY

Molecular target: the molecule itself
Assay: dynamic light scattering

Binding result, binds:
B1
B2
B3
